Results published in patent publication US20220144960A1 (NANJING LEGEND BIOTECH, published 2022).
Like-named read-outs stand apart in the source and are kept apart here.

T1: CD30 on CD30-expressing tumor cell lines (HH, MJ, H9) (UniProt P28908 19-595)
T1 sequence (looked up): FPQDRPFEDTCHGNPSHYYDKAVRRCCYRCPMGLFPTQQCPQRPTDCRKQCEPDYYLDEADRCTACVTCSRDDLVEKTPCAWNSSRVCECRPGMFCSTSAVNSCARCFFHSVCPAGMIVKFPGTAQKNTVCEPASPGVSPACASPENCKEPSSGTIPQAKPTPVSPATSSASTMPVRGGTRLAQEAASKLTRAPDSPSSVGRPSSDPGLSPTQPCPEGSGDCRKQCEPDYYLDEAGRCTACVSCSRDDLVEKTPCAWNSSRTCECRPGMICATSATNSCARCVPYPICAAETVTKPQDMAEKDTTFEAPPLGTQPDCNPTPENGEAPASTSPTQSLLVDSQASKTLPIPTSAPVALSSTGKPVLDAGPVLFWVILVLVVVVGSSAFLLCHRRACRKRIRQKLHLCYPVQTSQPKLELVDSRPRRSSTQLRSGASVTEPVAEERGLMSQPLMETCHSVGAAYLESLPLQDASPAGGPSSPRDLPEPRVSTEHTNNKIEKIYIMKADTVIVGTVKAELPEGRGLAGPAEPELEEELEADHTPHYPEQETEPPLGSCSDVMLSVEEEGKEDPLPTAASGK

T2: rhesus CD30 ECD (rhesus, UniProt P28908 19-379 (human entry))
T2 construct: Produced in house; also called recombinant rhesus CD30; rhesus CD30 protein
T2 chain: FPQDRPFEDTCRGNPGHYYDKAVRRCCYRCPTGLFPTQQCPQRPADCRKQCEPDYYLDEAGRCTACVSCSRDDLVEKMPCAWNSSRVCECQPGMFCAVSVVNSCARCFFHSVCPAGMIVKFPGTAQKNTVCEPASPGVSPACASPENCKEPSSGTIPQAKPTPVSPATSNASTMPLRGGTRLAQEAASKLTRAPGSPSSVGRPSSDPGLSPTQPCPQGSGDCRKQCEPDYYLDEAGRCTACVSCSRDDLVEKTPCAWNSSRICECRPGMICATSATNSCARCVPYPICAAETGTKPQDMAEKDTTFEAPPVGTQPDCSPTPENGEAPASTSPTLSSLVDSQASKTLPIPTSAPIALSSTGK

T3: recombinant human CD30 extra cellular domain (ECD) protein (human, UniProt P28908 19-379)
T3 construct: Bought from R&D systems; also called rhCD30; human CD30 ECD
T3 sequence: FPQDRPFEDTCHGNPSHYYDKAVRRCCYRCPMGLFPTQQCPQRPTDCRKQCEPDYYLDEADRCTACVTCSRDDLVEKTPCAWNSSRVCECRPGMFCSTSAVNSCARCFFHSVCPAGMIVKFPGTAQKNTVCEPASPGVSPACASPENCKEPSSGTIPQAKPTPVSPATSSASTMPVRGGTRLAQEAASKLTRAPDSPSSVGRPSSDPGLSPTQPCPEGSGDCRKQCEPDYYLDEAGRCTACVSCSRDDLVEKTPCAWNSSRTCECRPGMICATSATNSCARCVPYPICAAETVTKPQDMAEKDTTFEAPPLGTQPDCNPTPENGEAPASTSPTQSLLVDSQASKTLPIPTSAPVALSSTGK


Key:
[1] = biological target: T1, CD30 on CD30-expressing tumor cell …; experiment: cell-based or functional assay
[2] = biological target: T1, CD30 on CD30-expressing tumor cell …; experiment: cell-based or functional assay; remark: listed apart in the source
[3] = biological target: T1, CD30 on CD30-expressing tumor cell …; experiment: cell-based or functional assay; remark: listed apart in the source
rhesus CD30 ECD = biological target: T2, rhesus CD30 ECD; experiment: ELISA on rhesus CD30 ECD protein; member of the group by paragraph 437
[4] = biological target: T4, human CD30 CRD6 (E282-K379) Fc fusion protein with human IgG1 Fc fragment at the C terminus (human); experiment: ELISA on the CD30 fragment CRD6, absorbance OD 450 nm; sdAb concentration not given
T4 construct: also called CRD6 construct
T4 sequence (chain, as listed by the source limits assumed): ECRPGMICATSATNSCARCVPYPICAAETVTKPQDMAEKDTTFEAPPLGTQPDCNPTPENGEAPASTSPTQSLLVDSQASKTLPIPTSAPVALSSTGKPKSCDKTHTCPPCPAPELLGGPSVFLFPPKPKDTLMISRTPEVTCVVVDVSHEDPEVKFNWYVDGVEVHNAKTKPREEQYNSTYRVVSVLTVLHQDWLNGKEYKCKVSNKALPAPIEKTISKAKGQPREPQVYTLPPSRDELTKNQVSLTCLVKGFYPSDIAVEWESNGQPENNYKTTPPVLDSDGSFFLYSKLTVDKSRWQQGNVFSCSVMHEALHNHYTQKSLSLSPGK

[5] = biological target: T3, recombinant human CD30 extra cellular …; experiment: SPR Biacore T200, His-tagged sdAb/Fab captured, 100.0 nM human CD30 as analyte, single curve
Description: Some of these unique binders were subjected to for further characterization by surface plasmon resonance (SPR) on a BIAcore T200 instrument (GE Healthcare). The experiment was carried out as follows. The crude sdAb/Fab proteins were captured through an affinity tag (6×Histidine tag) onto the sensorchip. High-concentration (100.0 nM) of human CD30 (R&D systems, Cat. #6126-CD) flowed over the sensorchip surface, and were allowed to bind the antibody fragments for 300 s followed by injection of the running buffer to allow dissociation of the complex. On-rate ([…] and off-rate (kd) were roughly calculated based on one association and dissociation curve, and were used to estimate the equilibrium dissociation constant (KD). 5F11 scFv (SEQ ID NO:216, prepared according to WO2017066122) was used as a positive control. Data were summarized in Table 3 below. The first 10 antibodies in Table 3 were sdAbs with amino acid sequence ID numbers summarized in Table 1, the last antibody was 5F11 scFv, and the remainings were human Fabs with CDR and scFv amino acid sequence ID numbers in Table 2.

% MJ cell lysis E:T = 0.5:1 (LDH assay, CAR T cells) [1] | % H9 cell lysis E:T = 5:1 (LDH assay, CAR T cells) [2] | % MJ cell lysis E:T = 1:1 (LDH assay, CAR T cells) [2] | % H9 cell lysis E:T = 2:1 (LDH assay, CAR T cells) [3] | % MJ cell lysis E:T = 1:1 (LDH assay, CAR T cells) [3] | binding result (rhesus CD30 ECD) | binding result [4] | Kd [5] | koff [5] | kon [5] | rhCD30 Binding (RU) [5] | Binder
58.4% | 64% | 58.5% | 50% | 55% | – | – | – | – | – | – | AS48542bbz CAR (other) QMQLVESGGGSVQAGETLRLSCTTSAFTFDGPDMAWYRQAPGNECVLVSIISADGRTYYADSVKGRFTISRDNAKNTVFLNLNSLQPEDTAVYYCALDPRKNCRGGYCCANWGPGTQVTVSSTTTPAPRPPTPAPTIASQPLSLRPEACRPAAGGAVHTRGLDFACDIYIWAPLAGTCGVLLLSLVITLYCKRGRKKLLYIFKQPFMRPVQTTQEEDGCSCRFPEEEEGGCELRVKFSRSADAPAYKQGQNQLYNELNLGRREEYDVLDKRRGRDPEMGGKPRRKNPQEGLYNELQKDKMAEAYSEIGMKGERRRGKGHDGLYQGLSTATKDTYDALHMQALPPR
– | 54% | 60.5% | – | – | – | – | – | – | – | – | AS53574-AS48542bil-bbz CAR (other) QVKLVESGGGSVQAGGSLRLSCAASGYIYSSNCMGWFRQAPGKEREWVARIHTGSGSTYYADSVKGRFTISQDNAKNTVYLQMNSLRPEDTAMYDCAAGRVVLGAVVCTNEYWGQGTQVTVSSGGGGSGGGGSGGGGSQMQLVESGGGSVQAGETLRLSCTTSAFTFDGPDMAWYRQAPGNECVLVSIISADGRTYYADSVKGRFTISRDNAKNTVFLNLNSLQPEDTAVYYCALDPRKNCRGGYCCANWGPGTQVTVSSTTTPAPRPPTPAPTIASQPLSLRPEACRPAAGGAVHTRGLDFACDIYIWAPLAGTCGVLLLSLVITLYCKRGRKKLLYIFKQPFMRPVQTTQEEDGCSCRFPEEEEGGCELRVKFSRSADAPAYKQGQNQLYNELNLGRREEYDVLDKRRGRDPEMGGKPRRKNPQEGLYNELQKDKMAEAYSEIGMKGERRRGKGHDGLYQGLSTATKDTYDALHMQALPPR
– | 84% | 64.3% | – | – | – | – | – | – | – | – | AS48542dil-bbz CAR (other) QMQLVESGGGSVQAGETLRLSCTTSAFTFDGPDMAWYRQAPGNECVLVSIISADGRTYYADSVKGRFTISRDNAKNTVFLNLNSLQPEDTAVYYCALDPRKNCRGGYCCANWGPGTQVTVSSGGGGSGGGGSGGGGSQMQLVESGGGSVQAGETLRLSCTTSAFTFDGPDMAWYRQAPGNECVLVSIISADGRTYYADSVKGRFTISRDNAKNTVFLNLNSLQPEDTAVYYCALDPRKNCRGGYCCANWGPGTQVTVSSTTTPAPRPPTPAPTIASQPLSLRPEACRPAAGGAVHTRGLDFACDIYIWAPLAGTCGVLLLSLVITLYCKRGRKKLLYIFKQPFMRPVQTTQEEDGCSCRFPEEEEGGCELRVKFSRSADAPAYKQGQNQLYNELNLGRREEYDVLDKRRGRDPEMGGKPRRKNPQEGLYNELQKDKMAEAYSEIGMKGERRRGKGHDGLYQGLSTATKDTYDALHMQALPPR
– | – | – | – | – | binds | binds | 76 nM | 0.0046 s⁻¹ | 61000 M⁻¹ s⁻¹ | 59.2 RU | AS54233 sdAb (VHH, Camel sdAb) VHH: QVQLVESGGGSVQAGETLRLSCTASGFTFDGPDMAWYRQAPGNECELVSIISADGRTYYTDSVKGRFTASQDNAKNTVSLYLKSLQPEDTAVYYCAADPRRNCRGNCCGNWGPGTQVTVSS
– | 81% | 56.4% | – | – | – | – | – | – | – | – | AS48542dis-bbz CAR (other) QMQLVESGGGSVQAGETLRLSCTTSAFTFDGPDMAWYRQAPGNECVLVSIISADGRTYYADSVKGRFTISRDNAKNTVFLNLNSLQPEDTAVYYCALDPRKNCRGGYCCANWGPGTQVTVSSGGGGSQMQLVESGGGSVQAGETLRLSCTTSAFTFDGPDMAWYRQAPGNECVLVSIISADGRTYYADSVKGRFTISRDNAKNTVFLNLNSLQPEDTAVYYCALDPRKNCRGGYCCANWGPGTQVTVSSTTTPAPRPPTPAPTIASQPLSLRPEACRPAAGGAVHTRGLDFACDIYIWAPLAGTCGVLLLSLVITLYCKRGRKKLLYIFKQPFMRPVQTTQEEDGCSCRFPEEEEGGCELRVKFSRSADAPAYKQGQNQLYNELNLGRREEYDVLDKRRGRDPEMGGKPRRKNPQEGLYNELQKDKMAEAYSEIGMKGERRRGKGHDGLYQGLSTATKDTYDALHMQALPPR
– | – | – | – | – | binds | binds | 29 nM | 0.0042 s⁻¹ | 140000 M⁻¹ s⁻¹ | 119 RU | AS47863 sdAb (VHH, Camel sdAb) VHH: QVQLEESGGGSVQAGETLRLSCTASGSTFGDSDMGWYRQAPGNACELVSIISSDGRTYYVDSVKGRFTISQDNAVSTVYLQMNSLKPEDTGVYYCAADLRQYCRDGRCCGYWGQGTQVTVSS
– | – | – | – | – | binds | binds | 25 nM | 0.0023 s⁻¹ | 93000 M⁻¹ s⁻¹ | 83.5 RU | AS48433 sdAb (VHH, Camel sdAb) VHH: QIQLVESGGGSVQAGETLRLSCTASGSTFGDSDMGWYRQAPGNACELVSIISSDGRTYYVDSVKGRFTISQDNAVSTVYLQMNSLNPEDTGVYYCAADLRLNCRDGRCCGYWGQGTQVTVSS
– | – | – | – | – | binds | binds | 30 nM | 0.01 s⁻¹ | 340000 M⁻¹ s⁻¹ | 106 RU | AS48463 sdAb (VHH, Camel sdAb) VHH: QVHLMESGGGSVQAGETLRLSCTASGFTFANSDMGWYRQAPGNACELVSIISSHGGTTYYVDSVKGRFTISRHNAENTVYLRMTSLKPEDTALYYCVADPRSNCRGGYCCGYWGPGTQVTVSS
– | – | – | – | – | binds | binds | 19 nM | 0.0024 s⁻¹ | 120000 M⁻¹ s⁻¹ | 60.8 RU | AS48542 sdAb (VHH, Camel sdAb) VHH: QMQLVESGGGSVQAGETLRLSCTTSAFTFDGPDMAWYRQAPGNECVLVSIISADGRTYYADSVKGRFTISRDNAKNTVFLNLNSLQPEDTAVYYCALDPRKNCRGGYCCANWGPGTQVTVSS
– | – | – | – | – | binds | binds | 31 nM | 0.0061 s⁻¹ | 200000 M⁻¹ s⁻¹ | 69.8 RU | AS48508 sdAb (VHH, Camel sdAb) VHH: EVQLVESGGGSVQAGGSLRLSCTASRFTFDGPDMAWYRQAPGNACELVSIISADGRTYYTDSVKGRFTISRDNAKNTVFLYLNSLQPEDTAVYYCAPDPRRNCRGGYCCGNWGPGTQVTVSS
– | – | – | – | – | binds | binds | 130 nM | 0.0069 s⁻¹ | 56000 M⁻¹ s⁻¹ | 284 RU | AS53750 sdAb (VHH, Camel sdAb) VHH: EVQLVESGGGLVQPGGSLRLSCTASGFTDDGPDMAWYRRAPGNECELVSIISADGRTYYTDSVKGRFTISRDNAKNTVFLYLNSLQPEDTAVYYCAPDPRRNCRGGDCCGNWGPGTQVTVSS
